T1: SARS-CoV-2 N protein peptide on HLA-A*11:01 (human)
T1 peptide: QQQQGQTVTK

T2: SARS-CoV-2 N protein peptide on HLA-A*11:01 (human)
T2 peptide: ATEGALNTPK

B1: TCR-19 (TCR)
alpha TRAV29/DV5 TRAJ30 CDR3: CAAMSMNRDDKIIF
beta TRBV4-1 TRBJ2-1 CDR3: CASSRLPGLAGGTVVNEQFF
B2: TCR-18 (TCR)
alpha TRAV6 TRAJ45 CDR3: CALDGSGGGADGLTF
beta TRBV7-8 TRBJ1-3 CDR3: CASSPGRSGNTIYF
B3: TCR-38-1 (TCR)
alpha TRAV8-6 TRAJ29 CDR3: CAVTTDSGNTPLVF
beta TRBV11-2 TRBJ2-1 CDR3: CASSPAFGEQFF
B4: TCR-23-2 (TCR)
alpha TRAV6 TRAJ21 CDR3: CALWDFNKFYF
beta TRBV27 TRBJ2-5 CDR3: CASSPYSGGQGETQYF
B5: TCR-24 (TCR)
alpha TRAV29/DV5 TRAJ48 CDR3: CAASEAGGNEKLTF
beta TRBV15 TRBJ1-5 CDR3: CATSREQAGQPQHF
B6: TCR-03 (TCR)
alpha TRAV38-2/DV8 TRAJ30 CDR3: CAYRSVPLNRDDKIIF
beta TRBV19 TRBJ1-5 CDR3: CASSKSGTGYQPQHF
B7: TCR-22 (TCR)
alpha TRAV19 TRAJ49 CDR3: CALSEALNTGNQFYF
beta TRBV3-1 TRBJ1-6 CDR3: CASSQVAYSPLHF
B8: TCR-34-1 (TCR)
alpha TRAV14/DV4 TRAJ6 CDR3: CAMREGSKGSYIPTF
beta TRBV28 TRBJ2-7 CDR3: CASRLNPGTVSYEQYF
B9: TCR-08 (TCR)
alpha TRAV19 TRAJ33 CDR3: CALSEAVDSNYQLIW
beta TRBV7-9 TRBJ1-2 CDR3: CASSLRQGPNYGYTF
B10: TCR-32 (TCR)
alpha TRAV3 TRAJ8 CDR3: CAVRVYTGFQKLVF
beta TRBV9 TRBJ2-3 CDR3: CASSSNLQGADTQYF
B11: TCR-10 (TCR)
alpha TRAV29/DV5 TRAJ48 CDR3: CAASDENEKLTF
beta TRBV6-6 TRBJ2-1 CDR3: CASKGGGTSGYEQFF
B12: TCR-29-1 (TCR)
alpha TRAV3 TRAJ33 CDR3: CAVRRLMDSNYQLIW
beta TRBV7-6 TRBJ2-1 CDR3: CASSHGTSGSSHEQFF
B13: TCR-37-1 (TCR)
alpha TRAV5 TRAJ5 CDR3: CAESDMDMGRRALTF
beta TRBV7-3 TRBJ2-3 CDR3: CASSRRASGIGTDTQYF
B14: TCR-17 (TCR)
alpha TRAV29/DV5 TRAJ30 CDR3: CAARTGDDKIIF
beta TRBV10-3 TRBJ1-5 CDR3: CAINKQGFNQPQHF
B15: TCR-33 (TCR)
alpha TRAV19 TRAJ15 CDR3: CALSEAEAGTALIF
beta TRBV6-2 TRBJ1-2 CDR3: CASSYGSVYGYTF
B16: TCR-28 (TCR)
alpha TRAV19 TRAJ54 CDR3: CALSEAYQGAQKLVF
beta TRBV9 TRBJ2-5 CDR3: CASSVGGTVQETQYF
B17: TCR-09 (TCR)
alpha TRAV29/DV5 TRAJ43 CDR3: CAASPEYNNNDMRF
beta TRBV18 TRBJ2-3 CDR3: CASSRTLGTSGNTQYF
B18: TCR-20 (TCR)
alpha TRAV13-1 TRAJ47 CDR3: CAAIQEYGNKLVF
beta TRBV5-5 TRBJ2-2 CDR3: CASSPRTLFTGELFF

What was measured:
Assay in all cases: activation reporter or marker
[1] = target: SARS-CoV-2 N protein peptide on HLA-A*11:01 (human)
[2] = target: T1, SARS-CoV-2 N protein peptide on …
[3] = target: T2, SARS-CoV-2 N protein peptide on …

Binder	binding result [1]	also measured
B1	recognises	
B2	recognises	
B3	recognises	
B4		binding result [2]: recognises
B5	recognises	
B6	recognises	
B7	recognises	
B8		binding result [3]: recognises
B9	recognises	
B10		binding result [3]: recognises
B11	recognises	
B12	recognises	
B13	recognises	
B14	recognises	
B15	recognises	
B16		binding result [3]: recognises
B17	recognises	
B18	recognises	
